Data: the DeepSol protein solubility set

Test: soluble on expression in E. coli; label from the status in PepcDB or PDB records

Row | Sequence | soluble on expression in E. coli
1 | MEMEHINENTIRVLIGNEDLADRGITFLDLLGNHKDVENFFYSILEEVDVEDEFQGSEAVTFQVLPKNDGLELFISKNVAMDDLSSLEGLSEVNADVSELIRKQIEADKAAADELDEMEATDETNRNVIFELDNFEAMIQLSKEVFMQSVLTNLYTYNDRYYLQVLFLTDELEKTNVDNEIAQILEFAHKTTVTQDTLVEYGTCIMERSALELTRYYFND | not soluble
2 | MEMKGINNIRIDDRLIHGQVATMWSNKLGVTRLMVVNDNVAKNDLQKQVLRMAVPAGISSSIITEETAISNIKNGKYEGQNVLMIVKSPVDLLPFIENDLEIKRINVGNMSNRNNTTVLRPNISVTDEERSAFEKLLSRDIEITTIMTPDDKKTFLKDIL | not soluble
3 | MEMRQPAVAGQFYPLRCENLENELKRCFEGLEIREQEVLGAVCPHAGYMYSGKVAAHVYATLPEADTYVIFGPNHTGYGSPVSVSRETWKTPLGNIDVDLELADGFLGSIVDADELGHKYEHSIEVQLPFLQYRFERDFKILPICMGMQDEETAVEVGNLLADLISESGKRAVIIASSDFTHYETAERAKEIDSEVIDSILNFDISGMYDRLYRRNASVCGYGPITAMLTASKKLGGSRATLLKYANSGDVSGDKDAVVGYAAIIVELEHHHHHH | soluble
4 | MENIHDLWERALKSMEKKVSKPSFETWLKQTKANSIEDSTIIITAPNEFARDWLEKHYDELISETIDDLTGVRLYPKFVIPTSQLDEPFVEQELKKPMKQPPAQNGEMPNNMLNDKYTFDTFVIGSGNRFAHAASLAVAEAPAKAYNPLFIYGGVGLGKTHLMHAIGHYVMDHNPNAKVVYLSSEKFTNEFINAIRDNKAVNFRNKYRNVDVLLIDDIQFLAGKEQTQEEFFHTFNALHEDNKQIVISSDRPPKEIPTLEDRLRSRFEWGLITDITPPDLETRIAILRKKAKAENLDIPNEVMLYIANQIDTNIRELEGALIRVVAYSSLINQDMNADLAAEALKDIIPNAKPRVLTITDIQKTVGEYFHVKLEDFKAKKRTKSVAFPRQIAMYLSRELTDASLPKIGSEFGGRDHTTVIHAHEKISKLLSTDQELQDKIQDISDKLRSLEHHHHHH | soluble
5 | MENKKSFFHLHLISDSTGETLMSAGRAVSAQFHTSMPVEHVYPMIRNQKQLAQVIDLIDKEPGIVLYTIVDQQLAEFLDLRCHAIGVPCVNVLEPIIGIFQTYLGAPSRRRVGAQHALNADYFARIEALNFAMDHDDGQMPETYDDADVVIIGISRTSKTPTSIYLANRGIKTANIPVVPNVPLPESLYAATRPLIVGLVATSDRISQVRENRDLGTTGGFDGGRYTDRATIMEELKYARALCARNNWPLIDVTRRSIEETAAAILALRPRTRLEHHHHHH | soluble
6 | MENLKIRYIDTRKIGTVSGVKVPVKKGYKIVVEDEEKGEDIVEVLGYSREESKNGIQPRFVRVANKRDLEIFKKNMRESERAFEICKEKIKEHGLDMHLLKAYIPLNRKKVFFYYLAEERVDFRNLVRDLAKIFKRRIEMRQIGVRDAVQMKGWIGRCMRETCCSQFMENFQSISLRDITEQNLPLSPSKFTGPCGRLVCCMAFERENYLLKILFPEPGTKLCYNKQEVTLLEVDPLRETVVLQYDELGKKVELGVRDMLPKGYEKALEHCRSCQFCCRRVYEEATEHEIVKSSAELEHHHHHH | not soluble
7 | MENRESAQRPHERLDAWRDSMELVEMIYRLTEVFPDQERYGLTAQLRRAAVSIPSNIAEGAARRSTPDYSRFLSIARGSLSELDTQVQIAARLGYSRSEDDQSVRRQVDLVFAKLTALMNALRRRGAA | soluble
8 | MEQEFFFPPPKKSDGPVVACVVEKKGDGTRTSMRQNEIYAYSAQIRTGDGCMVMPKIHWNSFEPSDWVSCTLEYVNKANQIKEKEMLEISKVPAENFDRFGMPPTRFENGIVQIKTLFVACPEFIKNRETRNAYGSYKKLFILNIGLGFVSTRRTADGNLAEKVKNGDVYTGIFEFRAKDNGAINFNHRGRVRDETNHVIERDAMWELTKTSSVAATDVQKKQMKEAIEQLRKDAEQFEREFKDSQSRPVAPMLPPNEISENRKEINLGLALPSRHSQPSIRTVDVVTTTPAQMMPTASSFRIPFAQVSKAPVVAPSSQLQQQQQQPCSSNQTARIGNFLERDQVRGNLLGVPLSSSTPRGSPELLRRREVTADDGNITSNTAVMLRDNNANPMNRRRPS | not soluble
9 | MEQKYEEDIQKLQQEIEMLEAEQEETLRSIFVQHGDRLQQGVKSACEERGGGGAQQHTLSKLITEVRELEKDLRRQTEINGITLNECFVKTLHKSERKLIQQLRLAGHCGLLLFQVEFAVTEIQEDNVLHRRVTELNIVVDGVEFKDFSAFVSRVEDTKDLLLFFRTLRTFSERCEDRRQTFQHFQEKYPDVVNLPEGCRSEIMIIRSPQLPGISMTLFWKIHVSKEGVVKPLLDLLLKMPDQALELDTKKVMEKASDYFQSLLQLLGVEASIEGLIRTVCS | not soluble
10 | MEQPYVYAYPQGSGPSGAPTPQAGGVVVDPKYCAPYPIDMAIVRKMMSLTDGNFVITDVNGNLLFKVKEPVFGLHDKRVLLDGSGTPVVTLREKMVSMHDRWQVFRGGSTDQRDLLYTVKRSSMLQLKTKLDVFLGHNKDEKRCDFRVKGSWLERSCVVYAGESDAIVAQMHRKHTVQSVFLGKDNFSVTVYPNVDYAFIASLVVILDDVNREDRAA | soluble
11 | MEQTLKITSVLSDPTRFHIYEYIAKVHREVSVQEIAEKFHIHPNVARLHLTKLEDVRMVVSDTQKTGKGGRPSRLYRLSDEVIGLYFPFRDYQLLARIAIQTMAKLGPIGSEALRETGKRFGRELIASRLPHNGAASALTMADKIAIMEEAAEAAGFLPQLHYDEEKGVLYLDIFNCPFKEIAAQAPDTVCGMHHSFLEGMVETLFAGAEVTETENMMEGSHRCAYRIVIRP | not soluble
12 | MERFDAVIIGAGAAGMFCAAQAGQAGSRVLLIDNGKKPGRKILMSGGGRCNFTNLYVEPAAYLSQNPHFCKSALARYTQWDFIDLVGRYGIAWHEKTLGQLFCDDSAQRIVDMLVAECDKGGVTMRLRSEVLSVERDESGFVLALNGETVTTQKLVIASGGLSMPGLGASPFGYKIAEQFGLKVLPTRAGLVPFTLHKPLLEQLQTLSGVSVPCVITARNGTVFRENLLFTHRGLSGPAVLQISSYWQPGELVSINLLPDLSLEDVLNEQRNAHPNQSLKNTLAMHLPKRLVECLQQLGLIPDVSLRQLNVRDQQTLVDTLTAWQVQPNGTEGYRTAEVTLGGVDTNELSSRTMEARRVPGLYFIGEVMDVTGWLGGYNFQWAWSSAWACAQDLIALKIN | soluble
13 | MERLFKHICLVARHSKPGITPALMQLANHLAAGGATVLIDKESVTPDEANGYPLIDRTDMGKLADLCIVLGGDGTMLSIARLLAPYRVPLVGINQGRLGFMTDIPLHEMLDSVDAILHGKFVPEDRILLQAAVVREDAEVASALAFNDVVFSRGAVGSMIEFEVFIDNQFVYSQRSDGLIVSTPTGSTAYSLASGGPILHPTLQAIALVPICPQSLSNRPIAVNDSCEVEFMLTRGLDARVHFDGQLHCDLMEMDRVLIRRYRNPLRILHPEGYNYYDMLRHKLHWGERLILEHHHHHH | soluble
14 | MERMMLIAFDLEGTLTDMVSWELLHKKFETCGLAKKNAELFFSGRISYEEWAKLDASLWKGRRREEVEEVFKEVSLKDYAEELFRWLKEKGFKTAIITGGLMCLAKKVAEKLNPDYVYANELVFNEKGEITGDVIVRVTFDNKGEILERLKRELNPTLTVAVGDWKNDLPMFEVADISISLGEDHADYLAKDLREVKKILKEVLLETEKL | soluble
15 | MERPGSGLAGVVVGCDDGRVEKLGPQAGFTAVACISWDNRLRLPLAGSLGLVRVDGVDATSVLAGLVLRLGAAGRPVLLDSLTIGGFNIVSPPGVERLTGSPVLAVYNYRPSLERLESGLRSSRLPLAGVRARVLSLVEEAAEASTPHGPVYLVAWGLEASEARRLVLETQVYGRKPEPVRIAHYTASEASEALRRV | not soluble
16 | MERVSITERPDWREKAHEYGFNFHTMYGEPYWCEDAYYKLTLAQVEKLEEVTAELHQMCLKVVEKVIASDELMTKFRIPKHTWSFVRQSWLTHQPSLYSRLDLAWDGTGEPKLLENNADTPTSLYEAAFFQWIWLEDQLNAGNLPEGSDQFNSLQEKLIDRFVELREQYGFQLLHLTCCRDTVEDRGTIQYLQDCATEAEIATEFLYIDDIGLGEKGQFTDLQDQVISNLFKLYPWEFMLREMFSTKLEDAGVRWLEPAWKSIISNKALLPLLWEMFPNHPNLLPAYFAEDDHPQMEKYVVKPIFSREGANVSIIENGKTIEAAEGPYGEEGMIVQQFHPLPKFGDSYMLIGSWLVNDQPAGIGIREDRALITQDMSRFYPHIFVE | soluble
17 | MERVVINVSGLRFETQMKTLAQFPETLLGDPEKRTQYFDPLRNEYFFDRNRPSFDAILYYYQSGGRLKRPVNVPFDIFTEEVKFYQLG | soluble
18 | MESAKSIIGGHQNVILMRHGDRLDNFEPLWTSTAARPWDPPLAQDGKDRAFRTGQRIRSQLGVPIHRVFVSPFLRCIQTASEVVAALSAVDFDPIAMSSKDVLSIDNTKIKVAIEFGLSEIPHPIFIKSEVAPKDGKFDFKISDLEAMFPEGTVDSNVDMVYKEVPEWGESAQAFEDRYYKTVKILAEKYPSENLLLVTHWGAVSVAFYNYFKDATKYVVDYCGSVEMRRQILNGDGFGKFEVVTSHGVSYKYTKIPVHDHVVVSRQSPL | soluble
19 | MESEMSDPQPLQEERYDMSGARLALTLCVTKAREGSEVDMEALERMFRYLKFESTMKRDPTAQQFLEELDEFQQTIDNWEEPVSCAFVVLMAHGEEGLLKGEDEKMVRLEDLFEVLNNKNCKALRGKPKVYIIQACRGEHRDPGEELRGNEELGGDEELGGDEVAVLKNNPQSIPTYTDTLHIYSTVEGYLSYRHDEKGSGFIQTLTDVFIHKKGSILELTEEITRLMANTEVMQEGKPRKVNPEVQSTLRKKLYLQ | soluble
20 | MESKLEQNVTAMMSSTGASGITVADSEGVRLHSAGKITDMANVGSLMIADAKNMFPKGTRNKKNSYPIVTLHSSDGSKTTKFLFENLKILNVLFKNQQISYYLLQKPEISGFSYKKSVFFSNFLSENLKIF | soluble
21 | MESLIGLVNRIQRACTVLGDYGGGTGSNAFNSLWEALPTVAVVGGQSSGKSSVLESIVGRDFLPRGSGIVTRRPLVLQLHKTDDGTEEYAEFLHLPKKQFTDFALVRREIQDETDRITGKNKQISPVPIHLSIYSPNVVNLTLIDLPGLTKVAVEGQPETIAEDIESMVRTYVDKPNCIILAISPANQDIATSDAIKLAKDVDPTGERTFGVLTKLDLMDKGTNALEVLEGRSYRLQHPWVGIVNRSQADINKNVDMMLARRKEREYFDTSPDYGHLASKMGSEYLAKLLSKHLESVIRTRIPSILSLINKSIEELERELDRMGRPVAVDAGAQLYTILEMCRAFDKIFKEHLDGGRPGGDRIYGVFDNQLPAALKKLPFDRHLSLQSVKKIVSEADGYQPHLIAPEQGYRRLIEGALGYFRGPAEASVDAVHYVLKELVRKSISETEELKRFPSLQVELAAAANSSLEKFREESKKSVIRLVDMESAYLTAEFFRKLPQEIERPVTNSKNQTASPSSATLDQYGDGHFRRIASNVSAYVNMVSDTLRNTIPKACVYCQVRQAKLALLNYFYSQISKREGKQLGQLLDEDPALMDRRLECAKRLELYKKARDEIDAVAWVR | not soluble
